Data reported in the supplement of paper PMC7125110.
± gives the standard error. This sample holds only a part of the variants without activity.

B1: glmS ribozyme (parent)
chain: AUAAAAGCGCCAGAACUACAGAAAUGUAGUUGACGAGGAGGAGGUUUAUCGAAUUUUCGGCGGAUGCCUCCAAA

Legend:
Details in all cases: with glucosamine-6-phosphate
glucosamine-6-phosphate [1] = variants of: B1; assay: self-cleavage kobs at 40 uM GlcN6P; higher = faster cleavage; RNA array
Outline: (§1)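 A hybridised Cy3 probe tracked barcoded ribozyme variants, transcribed in situ by E. coli RNA polymerase on sequenced MiSeq chips, at 37 °C. The variants received 40 μM to 10 mM glucosamine-6-phosphate in HEPES/KCl/Mg(OAc)2 buffer. kobs came from decay fits and kcat and KM from weighted Michaelis–Menten fits.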

glucosamine-6-phosphate [2] = variants of: B1; assay: self-cleavage kobs at 160 uM GlcN6P; higher = faster cleavage; RNA array
Outline: as §1

glucosamine-6-phosphate [3] = variants of: B1; assay: self-cleavage kobs at 640 uM GlcN6P; higher = faster cleavage; RNA array
Outline: as §1

glucosamine-6-phosphate [4] = variants of: B1; assay: self-cleavage kobs at 2500 uM GlcN6P; higher = faster cleavage; RNA array
Outline: as §1

glucosamine-6-phosphate [5] = variants of: B1; assay: self-cleavage kobs at 10000 uM GlcN6P; higher = faster cleavage; RNA array
Outline: as §1

Variant | self-cleavage kobs at 40 uM GlcN6P (glucosamine-6-phosphate [1]) [s⁻¹] | self-cleavage kobs at 160 uM GlcN6P (glucosamine-6-phosphate [2]) [s⁻¹] | self-cleavage kobs at 640 uM GlcN6P (glucosamine-6-phosphate [3]) [s⁻¹] | self-cleavage kobs at 2500 uM GlcN6P (glucosamine-6-phosphate [4]) [s⁻¹] | self-cleavage kobs at 10000 uM GlcN6P (glucosamine-6-phosphate [5]) [s⁻¹]
AUAAAAGCGCCAGAACUACAGAAAUGUAGUUGACGAGGAGGAGGUUUAUGGAAUUUAGGGCGGAUGCCUCCAAA [C50G U57A C58G] | 8.29e-05 ± 2.4e-05 | 0.000517 ± 0.00012 | 0.000297 ± 9.4e-05 | 7.43e-05 ± 2.1e-05 | –
AUAAAAGCGCCAGAACUACAGAAAUGUAGUUGACGAGGAGGAGGUUUAUGGAAUUUUCGGCGGACGUCUCCAAA [C50G U65C C67U] | 6.84e-05 ± 1.4e-05 | – | – | 0.000106 ± 2e-05 | 9.96e-05 ± 1.4e-05
AUAAAAGCGCCAGAACUACAGAAAUGUAGUUGACGAGGAGGGGGUUUAUCGAAUGUUCCGCGGAUGCCUCCAAA [A42G U55G G59C] | < 1e-05 | – | – | < 1e-05 | –
AUAAAAGCGCCAGAACUACAGAAAUGUAGUUGACGAGGAGGAGGUUUAUCUAAUUUUCGGCGUCUGCCUCCAAA [G51U G63U A64C] | < 1e-05 | – | – | < 1e-05 | –
AUAAAAGCGCCAGAACUACAGAAAUGUAGUUGACGAGGAGGAGGUUUAUCGAAUAUUCGGCAGAUGCCUCCAAA [U55A G62A] | < 1e-05 | – | – | < 1e-05 | –
AUAAAAGCGCGAGAACUACAGAAAUGUAGUUGACGAGGAGGAGGUUUCUCGAAUUUUCGGCGGAUGCCUCCAAA [C11G A48C] | < 1e-05 | – | – | – | < 1e-05
AUAAAAGCGCCAGAACUACAGAAAUGUAGUUGACGAGGGGGAGGUUUUUCGAAUUUUGGGCGGAUGCCUCCAAA [A39G A48U C58G] | < 1e-05 | – | – | – | < 1e-05
AUAAAAGCGCCAGAACUACAGAAAUGUAGUUGGCGGGGCGGAGGAUUAUCGAAUUUUCGGCGGAUGCCUCCAAA [A33G A36G A39C U45A] | < 1e-05 | < 1e-05 | – | < 1e-05 | < 1e-05
AUAAAAGCGCCAGAACUACAGAAAUGUAGUUGAUGAGGAGGAGGUUUAUCGAAAUUUCGGCGGAUGCCUCCAAA [C34U U54A] | < 1e-05 | – | < 1e-05 | – | < 1e-05
AUAAAAGCGCUAGAACUACAGAAAUGUAGUUGACGAGGAGGAGGUUUAUCGAAUUUUCGGCGGUUGCCUCCAAA [C11U A64U] | < 1e-05 | < 1e-05 | < 1e-05 | – | –
AUAAAAGCGCCAGUACUACAGAAAUGUAGUUGGCGAGUAGGAGGUUUAUCGAAUUUUCGGCGGAUGCCUCAAAA [A14U A33G G38U C71A] | < 1e-05 | – | – | – | –
AUAAAAGCGCCAGAACUACAGAAAUGUAGUUGACGGGGAGGAGGUUUAUCGAAUUUUCGGAGGAUGCCUCCAAA [A36G C61A] | < 1e-05 | – | < 1e-05 | – | < 1e-05
AUAAAAGCGCCAGAACUACAGAAAUGUAGUUGACGAGGAGGAAGUUUAUCGAAUUUACGGCGGAUGCCUCCAAA [G43A U57A] | < 1e-05 | – | – | < 1e-05 | < 1e-05
AUAAAAGCGGCAGAACUACAGAAAUGUAGUUCACGAGGAGGAGGUUUAUCGAAUUUACGGCGGAUGCCUCCAAA [C10G G32C U57A] | < 1e-05 | – | – | – | –
AUAAAACCGCCAGUACUACAGAAAUGUAGUUGACGAGGAGGAGGUUUAUCGAAUUUUCGGCGGAUGCCUCCAAA [G7C A14U] | < 1e-05 | < 1e-05 | < 1e-05 | < 1e-05 | –
AUAAAAGCGCCAGAACUACAGAAAUGUAGUUGACGAGGAUGAGGUUUAUCGAAUUUUCGCCGGAUGCCUCCAAA [G40U G60C] | < 1e-05 | < 1e-05 | – | < 1e-05 | < 1e-05
AUAAAAGCGCAAGAACUACAGAAAUGUAGUUGAGGAGGAGGACGUUUAUCUAAUUUUCGCCGGAUGCCUCCAAA [C11A C34G G43C G51U G60C] | < 1e-05 | – | < 1e-05 | – | –
AUAAAAGCGCAAGAACUACAGAAAUGUAUUUGACGAGGAGGAGGUUUAUGGAAUUUUCGGCGGAUGCCUCCAAA [C11A G29U C50G] | 6.35e-05 ± 1.7e-05 | 0.000296 ± 0.00011 | – | 5.28e-05 ± 2.3e-05 | –
AUAAAAGCGCCAGAACUACAGAAAUGUAGUUGAUGAGUAGGAGGUUUAUCGAAUUUUCGGCGGAUGCCUCCAAA [C34U G38U] | < 1e-05 | < 1e-05 | < 1e-05 | – | < 1e-05
AUAAAAGCGCCAGAACUACAGAAAUGUAGUUGACGAGGAGAAGGUUUAUCGAAUUUCCGGCGGAUGCCUCCAAA [G41A U57C] | < 1e-05 | < 1e-05 | < 1e-05 | – | –
AUAAAAGCGCCAGAACUACAGAAAUGUAGUUGACGAGGAGUAGGUUUAUCGAAUUUUCGCCGGAUGCCUCCAAA [G41U G60C] | < 1e-05 | < 1e-05 | < 1e-05 | < 1e-05 | < 1e-05
AUAAAAGCGCCAGAACUACAGAAAUGUAGUUGACGAGUAGGAGGUUUAUCGAAUUUUUGGCGGAUGCCUCCAAA [G38U C58U] | < 1e-05 | – | – | < 1e-05 | < 1e-05
AUAAAAGCGCCAGAACUACAGAAAUGUAGUUGACGAGGAGGGUGUUUAUCGAAUUUUCGGCGGAUGCCUCCAAA [A42G G43U] | < 1e-05 | < 1e-05 | < 1e-05 | < 1e-05 | –
AUAAAAGCGCCUGGACUACAGAAAUGUAGUUGACGAGGAGGAGGUUUAUCGAAUUUUCGGCGGUUUCCUCCAAA [A12U A14G A64U G66U] | < 1e-05 | – | – | – | –
AUAAAAGCCCCAGAACUACAGAAAUGUAUUUGACGAGGAGGAGGUUUAUCGAAUUUUCGGCGGAUGCCUCCAAA [G9C G29U] | < 1e-05 | < 1e-05 | < 1e-05 | – | < 1e-05
AUAAAAGCGCCAGAACUACAGAAAUGUAGUUGCCGAGGACGAGGUUUAUCGAAUUUUCGGCGGAUGCCUCCAAA [A33C G40C] | < 1e-05 | < 1e-05 | < 1e-05 | – | –
